Four molecules from publication doi:10.1101/2025.06.10.658938 (bioRxiv, 2025) can be followed below.

What all share (experiment): split reporter
Assay [1] concerns the target T1, calcitonin-like receptor (CLR), smBit-tagged Target construct (UniProt Q16602 23-461).
Assay [2] deals with T1, calcitonin-like receptor (CLR), …. This is another data set of the same source.
Assay [3] addresses sphingosine 1-phosphate receptor 1 (S1PR1), smBit-tagged Target construct (UniProt P21453 1-347).

T1 sequence (Q16602 23-461): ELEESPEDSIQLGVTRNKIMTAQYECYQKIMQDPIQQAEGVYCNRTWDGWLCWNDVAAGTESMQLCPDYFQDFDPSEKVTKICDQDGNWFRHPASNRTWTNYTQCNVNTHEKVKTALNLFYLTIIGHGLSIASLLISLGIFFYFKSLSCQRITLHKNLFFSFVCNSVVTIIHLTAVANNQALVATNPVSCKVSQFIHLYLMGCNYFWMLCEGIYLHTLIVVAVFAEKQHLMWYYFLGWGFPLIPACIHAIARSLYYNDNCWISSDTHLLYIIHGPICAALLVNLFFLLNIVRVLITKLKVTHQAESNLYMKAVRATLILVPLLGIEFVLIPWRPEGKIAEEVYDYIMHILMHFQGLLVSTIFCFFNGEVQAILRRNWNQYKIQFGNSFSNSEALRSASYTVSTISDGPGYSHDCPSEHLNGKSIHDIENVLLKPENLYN
Chain of sphingosine 1-phosphate receptor 1 (S1PR1), smBit-tagged Target construct (P21453 1-347): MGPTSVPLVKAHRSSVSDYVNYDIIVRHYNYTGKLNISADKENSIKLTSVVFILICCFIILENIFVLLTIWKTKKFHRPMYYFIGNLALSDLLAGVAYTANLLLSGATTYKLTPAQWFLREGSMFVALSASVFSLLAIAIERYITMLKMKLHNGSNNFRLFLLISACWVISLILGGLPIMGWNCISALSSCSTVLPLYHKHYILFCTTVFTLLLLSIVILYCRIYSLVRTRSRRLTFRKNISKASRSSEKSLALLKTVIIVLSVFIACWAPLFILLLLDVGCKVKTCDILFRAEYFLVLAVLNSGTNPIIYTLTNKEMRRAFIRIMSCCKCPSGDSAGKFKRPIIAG

B1: receptor activity-modifying protein 1 (RAMP1), LgBit-tagged Binder construct (natural protein)
chain: CQEANYGALLRELCLTQFQVDMEAVGETLWCDWGRTIRSYRELADCTWHMAEKLGCFWPNAEVDRFFLAVHGRYFRSCPISGRAVRDPPGSILYPFIVVPITVTLLVTALVVWQSKRTEGIV
For B1, in assay [1], the “fold change of NanoBit luminescence over CLR+CD8a (1 ng Binder DNA)” value stood at 13 ± 1.45 fold and the “fold change of NanoBit luminescence over CLR+CD8a (20 ng Binder DNA)” value came out at 2.16 ± 0.04 fold. For the same molecule, in assay [2], the “fold change of expression-normalised NanoBit over CLR+CD8a (1 ng Binder DNA)” value was 2.7 ± 0.2 fold, the “fold change of expression-normalised NanoBit over CLR+CD8a (5 ng Binder DNA)” value stood at 2.9 ± 0.1 fold, the “fold change of expression-normalised NanoBit over CLR+CD8a (10 ng Binder DNA)” value came to 2.7 ± 0.1 fold and the “fold change of expression-normalised NanoBit over CLR+CD8a (20 ng Binder DNA)” value was found to be 2.1 ± 0.1 fold.

In the case of LYPFIVVPITVTLLVTALVVWQSKRTEGIV (domain or fragment, UniProt O60894 119-148, looked up) [InnTag5-RAMP1-TM, LgBit-tagged Binder chimera], the “fold reduction of expression-normalised NanoBit relative to WT CLR-RAMP1” value in assay [2] is 2 fold.

B2: CD69 V48F, V49F double mutant, LgBit-tagged Binder construct (natural protein)
chain: SENCFVAENSSLHPESGQENDATSPHFSTRHEGSFQVPVLCAVMNFFFITILIIALIALSVGQYNCPGQYTFSMPSDSHVSSCSEDWVGYQRKCYFISTVKRSWTSAQNACSEHGATLAVIDSEKDMNFLKRYAGREEHWVGLKKEPGHPWKWSNGKEFNNWFNVTGSDKCVFLKNTEVSSMECEKNLYWICNKPYK
As for B2, the “percent decrease of expression-normalised NanoBit relative to WT CD69” value in assay [3] was 30%.

As to LYPFIVVPITVTLLVTALVVWQSKRTEGIV (domain or fragment, UniProt O60894 119-148, looked up) [HALO-RAMP1-TM, LgBit-tagged Binder chimera], in assay [2], the “fold reduction of expression-normalised NanoBit relative to WT CLR-RAMP1” value was determined as 2 fold.
